Measured values published in US11278600B2, “Human alpha-galactosidase variants” (Codexis, Inc., priority 2014, dated 2022).

Legend:
Format in all cases: biochemical
[1] = HTP-analysis of yeast culture supernatants, no challenge (MUGal hydrolysis); details: activity of the variant/activity of Rd4BB (SEQ ID NO: 15)
Method in brief: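 GLA variants were expressed in INVSc1 yeast grown in SD-Ura broth with glucose at 30° C., and culture supernatants were collected after 66-84 h. Supernatant was mixed with McIlvaine buffer pH 4.8 and MUGal (2 mM stock) in 50 mM citrate, 200 mM KCl, pH 4.6, incubated at 37° C. for 30-180 minutes, then quenched with sodium carbonate.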

[2] = HTP-analysis of supernatants pretreated with acid (MUGal hydrolysis); details: activity of the variant/activity of Rd4BB (SEQ ID NO: 15); challenge at pH 3.7
Method in brief: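 Yeast INVSc1 supernatant, GLA variants; acid challenge: McIlvaine pH 3.3-4.3, 37° C., 1-3 h. Assay: MUGal in McIlvaine pH 4.8 plus citrate pH 4.3, 37° C., 30-180 min, Na2CO3 stop, Ex 355/Em 448 nm.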

[3] = HTP-analysis of supernatants pretreated with base (MUGal hydrolysis); details: activity of the variant/activity of Rd4BB (SEQ ID NO: 15); challenge at pH 9.65
Method in brief: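 Supernatants from INVSc1 yeast expressing GLA variants (SD-Ura, 66-84 h, 30° C) were mixed with McIlvaine buffer pH 7.0-8.2 or 200 mM sodium bicarbonate pH 9.1-9.7 and held 1-18 h at 37° C. Residual activity was then measured on MUGal at pH 4.8/4.3, 37° C, 30-180 min, by fluorescence (Ex 355/Em 448 nm).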

B1: 373 (protein)
chain: LDNGLARTPTMGWLHWERFMCNLDCQEEPDSCISEKLFMERAERMVSEGWKDAGYEYLCIDDCWMAPQRDSEGRLQADPQRFPHGIRQLANYVHSKGLKLGIYADVGNKTCAGFPGSFGYYDIDAQTFADWGVDLLKFDGCYCDSLENLADGYKHMSLALNRTGRSIVYSCEWPLYMWPFQKPNYTEIRQYCNHWRNFADIDDSWKSIKSILDWTSRNQERIVDVAGPGGWNDPDMLVIGNFGLSWDQQVTQMALWAIMAAPLFMSNDLRHISPQAKALLQDKDVIAINQDPLGKQGYQLRKGDNFEVWERPLSGDAWAVAIINRQEIGGPRSYTIPVASLGKGVACNPACFITQLLPVKRQLGFYNWTSRLKSHINPTGTVLLQLENTMQMSLKDLL
modifications: Synthetic Polypeptide sequence of Variant No. 373 of mature Human GLA
Relative Activity of GLA Variants After No Challenge (NC) [1]: − (<0.5 relative activity over Rd4BB (SEQ ID NO: 15))
Relative Activity of GLA Variants After Challenge at pH 3.7 [2]: − (<0.5 relative activity over Rd4BB (SEQ ID NO: 15))
Relative Activity of GLA Variants After Challenge at pH 9.65 [3]: − (<0.5 relative activity over Rd4BB (SEQ ID NO: 15))

B2: 377 (protein)
chain: LDNGLARTPTMGWLHWERFMCNLDCQEEPDSCISEKLFTEMAERMVSEGWKDAGYEYLCIDDCWMAPQRDSEGRLQADPQRFPHGIRQLANYVHSKGLKLGIYADVGNKTCAGFPGSFGYYDIDAQTFADWGVDLLKFDGCYCDSLENLADGYKHMSLALNRTGRSIVYSCEWPLYMWPFQKPNYTEIRQYCNHWRNFADIDDSWKSIKSILDWTSRNQERIVDVAGPGGWNDPDMLVIGNFGLSWDQQVTQMALWAIMAAPLFMSNDLRHISPQAKALLQDKDVIAINQDPLGKQGYQLRKGDNFEVWERPLSGDAWAVAIINRQEIGGPRSYTIPVASLGKGVACNPACFITQLLPVKRQLGFYNWTSRLKSHINPTGTVLLQLENTMQMSLKDLL
modifications: Synthetic Polypeptide sequence of Variant No. 377 of mature Human GLA
Relative Activity of GLA Variants After No Challenge (NC) [1]: + (0.5 to 1.5 relative activity over Rd4BB (SEQ ID NO: 15))
Relative Activity of GLA Variants After Challenge at pH 3.7 [2]: ++ (>1.5 to 2.5 relative activity over Rd4BB (SEQ ID NO: 15))
Relative Activity of GLA Variants After Challenge at pH 9.65 [3]: − (<0.5 relative activity over Rd4BB (SEQ ID NO: 15))

B3: 378 (protein)
chain: LDNGLARTPTMGWLHWERFMCNLDCQEEPDSCISEKLFMEMAETMVSEGWKDAGYEYLCIDDCWMAPQRDSEGRLQADPQRFPHGIRQLANYVHSKGLKLGIYADVGNKTCAGFPGSFGYYDIDAQTFADWGVDLLKFDGCYCDSLENLADGYKHMSLALNRTGRSIVYSCEWPLYMWPFQKPNYTEIRQYCNHWRNFADIDDSWKSIKSILDWTSRNQERIVDVAGPGGWNDPDMLVIGNFGLSWDQQVTQMALWAIMAAPLFMSNDLRHISPQAKALLQDKDVIAINQDPLGKQGYQLRKGDNFEVWERPLSGDAWAVAIINRQEIGGPRSYTIPVASLGKGVACNPACFITQLLPVKRQLGFYNWTSRLKSHINPTGTVLLQLENTMQMSLKDLL
modifications: Synthetic Polypeptide sequence of Variant No. 378 of mature Human GLA
Relative Activity of GLA Variants After No Challenge (NC) [1]: + (0.5 to 1.5 relative activity over Rd4BB (SEQ ID NO: 15))
Relative Activity of GLA Variants After Challenge at pH 3.7 [2]: − (<0.5 relative activity over Rd4BB (SEQ ID NO: 15))
Relative Activity of GLA Variants After Challenge at pH 9.65 [3]: + (0.5 to 1.5 relative activity over Rd4BB (SEQ ID NO: 15))

B4: 380 (protein)
chain: LDNGLARTPTMGWLHWERFMCNLDCQEEPDSCISEKLFMEMAERMVSEGWKDAGYEYLCIDDCWMAPQRDSEGRLQADPQRFPHGIRQLANKVHSKGLKLGIYADVGNKTCAGFPGSFGYYDIDAQTFADWGVDLLKFDGCYCDSLENLADGYKHMSLALNRTGRSIVYSCEWPLYMWPFQKPNYTEIRQYCNHWRNFADIDDSWKSIKSILDWTSRNQERIVDVAGPGGWNDPDMLVIGNFGLSWDQQVTQMALWAIMAAPLFMSNDLRHISPQAKALLQDKDVIAINQDPLGKQGYQLRKGDNFEVWERPLSGDAWAVAIINRQEIGGPRSYTIPVASLGKGVACNPACFITQLLPVKRQLGFYNWTSRLKSHINPTGTVLLQLENTMQMSLKDLL
modifications: Synthetic Polypeptide sequence of Variant No. 380 of mature Human GLA
Relative Activity of GLA Variants After No Challenge (NC) [1]: + (0.5 to 1.5 relative activity over Rd4BB (SEQ ID NO: 15))
Relative Activity of GLA Variants After Challenge at pH 3.7 [2]: + (0.5 to 1.5 relative activity over Rd4BB (SEQ ID NO: 15))
Relative Activity of GLA Variants After Challenge at pH 9.65 [3]: − (<0.5 relative activity over Rd4BB (SEQ ID NO: 15))

B5: 374 (protein)
chain: LDNGLARTPTMGWLHWERFMCNLDCQEEPDSCISEKLFMEMAEMMVSEGWKDAGYEYLCIDDCWMAPQRDSEGRLQADPQRFPHGIRQLANYVHSKGLKLGIYADVGNKTCAGFPGSFGYYDIDAQTFADWGVDLLKFDGCYCDSLENLADGYKHMSLALNRTGRSIVYSCEWPLYMWPFQKPNYTEIRQYCNHWRNFADIDDSWKSIKSILDWTSRNQERIVDVAGPGGWNDPDMLVIGNFGLSWDQQVTQMALWAIMAAPLFMSNDLRHISPQAKALLQDKDVIAINQDPLGKQGYQLRKGDNFEVWERPLSGDAWAVAIINRQEIGGPRSYTIPVASLGKGVACNPACFITQLLPVKRQLGFYNWTSRLKSHINPTGTVLLQLENTMQMSLKDLL
modifications: Synthetic Polypeptide sequence of Variant No. 374 of mature Human GLA
Relative Activity of GLA Variants After No Challenge (NC) [1]: + (0.5 to 1.5 relative activity over Rd4BB (SEQ ID NO: 15))
Relative Activity of GLA Variants After Challenge at pH 3.7 [2]: + (0.5 to 1.5 relative activity over Rd4BB (SEQ ID NO: 15))
Relative Activity of GLA Variants After Challenge at pH 9.65 [3]: + (0.5 to 1.5 relative activity over Rd4BB (SEQ ID NO: 15))

B6: 375 (protein)
chain: LDNGLARTPTMGWLHWERFMCNLDCQEEPDSCISEKLFMEMAERMVIEGWKDAGYEYLCIDDCWMAPQRDSEGRLQADPQRFPHGIRQLANYVHSKGLKLGIYADVGNKTCAGFPGSFGYYDIDAQTFADWGVDLLKFDGCYCDSLENLADGYKHMSLALNRTGRSIVYSCEWPLYMWPFQKPNYTEIRQYCNHWRNFADIDDSWKSIKSILDWTSRNQERIVDVAGPGGWNDPDMLVIGNFGLSWDQQVTQMALWAIMAAPLFMSNDLRHISPQAKALLQDKDVIAINQDPLGKQGYQLRKGDNFEVWERPLSGDAWAVAIINRQEIGGPRSYTIPVASLGKGVACNPACFITQLLPVKRQLGFYNWTSRLKSHINPTGTVLLQLENTMQMSLKDLL
modifications: Synthetic Polypeptide sequence of Variant No. 375 of mature Human GLA
Relative Activity of GLA Variants After No Challenge (NC) [1]: + (0.5 to 1.5 relative activity over Rd4BB (SEQ ID NO: 15))
Relative Activity of GLA Variants After Challenge at pH 3.7 [2]: + (0.5 to 1.5 relative activity over Rd4BB (SEQ ID NO: 15))
Relative Activity of GLA Variants After Challenge at pH 9.65 [3]: + (0.5 to 1.5 relative activity over Rd4BB (SEQ ID NO: 15))

B7: 376 (protein)
chain: LDNGLARTPTMGWLHWERFMCNLDCQEEPDSCISEKLFMEPAERMVSEGWKDAGYEYLCIDDCWMAPQRDSEGRLQADPQRFPHGIRQLANYVHSKGLKLGIYADVGNKTCAGFPGSFGYYDIDAQTFADWGVDLLKFDGCYCDSLENLADGYKHMSLALNRTGRSIVYSCEWPLYMWPFQKPNYTEIRQYCNHWRNFADIDDSWKSIKSILDWTSRNQERIVDVAGPGGWNDPDMLVIGNFGLSWDQQVTQMALWAIMAAPLFMSNDLRHISPQAKALLQDKDVIAINQDPLGKQGYQLRKGDNFEVWERPLSGDAWAVAIINRQEIGGPRSYTIPVASLGKGVACNPACFITQLLPVKRQLGFYNWTSRLKSHINPTGTVLLQLENTMQMSLKDLL
modifications: Synthetic Polypeptide sequence of Variant No. 376 of mature Human GLA
Relative Activity of GLA Variants After No Challenge (NC) [1]: − (<0.5 relative activity over Rd4BB (SEQ ID NO: 15))
Relative Activity of GLA Variants After Challenge at pH 3.7 [2]: − (<0.5 relative activity over Rd4BB (SEQ ID NO: 15))
Relative Activity of GLA Variants After Challenge at pH 9.65 [3]: − (<0.5 relative activity over Rd4BB (SEQ ID NO: 15))

B8: 379 (protein)
chain: LDNGLARTPTMGWLHWERFMCNLDCQEEPDSCISEKLFMEMAERMVTEGWKDAGYEYLCIDDCWMAPQRDSEGRLQADPQRFPHGIRQLANYVHSKGLKLGIYADVGNKTCAGFPGSFGYYDIDAQTFADWGVDLLKFDGCYCDSLENLADGYKHMSLALNRTGRSIVYSCEWPLYMWPFQKPNYTEIRQYCNHWRNFADIDDSWKSIKSILDWTSRNQERIVDVAGPGGWNDPDMLVIGNFGLSWDQQVTQMALWAIMAAPLFMSNDLRHISPQAKALLQDKDVIAINQDPLGKQGYQLRKGDNFEVWERPLSGDAWAVAIINRQEIGGPRSYTIPVASLGKGVACNPACFITQLLPVKRQLGFYNWTSRLKSHINPTGTVLLQLENTMQMSLKDLL
modifications: Synthetic Polypeptide sequence of Variant No. 379 of mature Human GLA
Relative Activity of GLA Variants After No Challenge (NC) [1]: + (0.5 to 1.5 relative activity over Rd4BB (SEQ ID NO: 15))
Relative Activity of GLA Variants After Challenge at pH 3.7 [2]: ++ (>1.5 to 2.5 relative activity over Rd4BB (SEQ ID NO: 15))
Relative Activity of GLA Variants After Challenge at pH 9.65 [3]: + (0.5 to 1.5 relative activity over Rd4BB (SEQ ID NO: 15))
